# Results as given in article PMC4409382, “Structural Analysis of the 14-3-3ζ/Chibby Interaction Involved in Wnt/β-Catenin Signaling” (PLoS ONE, 2015).
# Square brackets hold non-standard residues; d marks the D form. Ends that are not written are not given here. pS = N[C@@H](COP(=O)(O)O)C(=O)O
# T1: 14-3-3ζ (human, UniProt P63104 1-245)
# T1 construct: N-terminal glycine retained after TEV cleavage of the His tag; 14-3-3 zeta, human, ORF purchased from GeneCopoeia, full-length construct; Dimer (~56 kDa); the stoichiometry n counts on the 14-3-3 monomer; also called full-length 14-3-3ζ; source: E. coli BL21 (DE3) pLysS, purified (Ni Sepharose, TEV cleavage, second Ni Sepharose pass); not shown: His tag, N-terminal, cleaved
# T1 sequence: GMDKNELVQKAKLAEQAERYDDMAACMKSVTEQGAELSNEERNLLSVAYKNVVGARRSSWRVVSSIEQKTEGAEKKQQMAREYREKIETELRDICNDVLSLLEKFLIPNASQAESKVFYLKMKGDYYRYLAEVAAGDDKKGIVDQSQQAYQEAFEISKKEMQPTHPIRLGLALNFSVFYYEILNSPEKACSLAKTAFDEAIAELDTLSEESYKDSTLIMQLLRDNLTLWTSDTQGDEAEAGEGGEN
# T2: 14-3-3ζΔC12 (human, UniProt P63104 1-233)
# T2 construct: N-terminal glycine retained after TEV cleavage of the His tag; 14-3-3 zeta, human, full-length 14-3-3ζ with the 12 C-terminal residues deleted; source: E. coli BL21 (DE3) pLysS, purified (Ni Sepharose, TEV cleavage, second Ni Sepharose pass); not shown: His tag, N-terminal, cleaved
# T2 sequence: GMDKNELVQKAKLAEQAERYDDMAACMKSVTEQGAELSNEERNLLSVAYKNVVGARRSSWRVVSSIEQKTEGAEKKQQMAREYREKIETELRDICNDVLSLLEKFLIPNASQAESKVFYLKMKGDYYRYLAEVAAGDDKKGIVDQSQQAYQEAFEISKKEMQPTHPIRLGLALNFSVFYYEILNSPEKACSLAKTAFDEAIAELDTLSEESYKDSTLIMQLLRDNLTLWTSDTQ
# T3: 14-3-3ζ K49A (human, UniProt P63104 1-245, K49A)
# T3 construct: N-terminal glycine retained after TEV cleavage of the His tag; 14-3-3 zeta, human, with the K49A mutation introduced into 14-3-3ζ (the full-length construct); they say that all 14-3-3ζ constructs were purified in the same way; source: E. coli, purified (Ni Sepharose, TEV cleavage, second Ni Sepharose pass); not shown: His tag, N-terminal, cleaved
# T3 sequence: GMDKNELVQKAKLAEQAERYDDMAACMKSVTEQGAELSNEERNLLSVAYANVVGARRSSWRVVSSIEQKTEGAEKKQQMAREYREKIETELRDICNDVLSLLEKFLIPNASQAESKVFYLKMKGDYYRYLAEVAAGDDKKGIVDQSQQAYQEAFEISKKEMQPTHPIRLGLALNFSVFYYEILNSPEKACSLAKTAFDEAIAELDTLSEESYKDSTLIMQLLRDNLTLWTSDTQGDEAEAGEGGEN
# T4: 14-3-3ζΔC12 (human, UniProt P63104 1-233)
# T4 construct: N-terminal glycine retained after TEV cleavage of the His tag; 14-3-3ζ, human, full-length construct with the 12 C-terminal residues deleted; Unlabelled for ITC; 15N, 13C, 2H labelled for the NMR titrations; also called 14-3-3ζ with the C-terminal 12 residues removed; source: E. coli BL21 (DE3) pLysS, purified (Ni Sepharose, TEV cleavage, second Ni Sepharose pass); not shown: His tag, N-terminal, …
# T4 sequence: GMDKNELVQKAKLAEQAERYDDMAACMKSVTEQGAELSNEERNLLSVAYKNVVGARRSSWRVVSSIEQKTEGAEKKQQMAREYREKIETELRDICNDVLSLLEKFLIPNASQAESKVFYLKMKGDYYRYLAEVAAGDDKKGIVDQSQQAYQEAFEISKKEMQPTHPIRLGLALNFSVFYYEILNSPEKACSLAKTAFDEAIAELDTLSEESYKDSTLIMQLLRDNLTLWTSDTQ
# T5: 14-3-3ζ K49A (human, UniProt P63104 1-245, K49A)
# T5 construct: N-terminal glycine retained after TEV cleavage of the His tag; 14-3-3ζ, human, with the K49A mutation introduced into 14-3-3ζ; source: purified by Ni Sepharose with TEV cleavage as all 14-3-3ζ constructs; not shown: His tag, N-terminal, cleaved
# T5 sequence: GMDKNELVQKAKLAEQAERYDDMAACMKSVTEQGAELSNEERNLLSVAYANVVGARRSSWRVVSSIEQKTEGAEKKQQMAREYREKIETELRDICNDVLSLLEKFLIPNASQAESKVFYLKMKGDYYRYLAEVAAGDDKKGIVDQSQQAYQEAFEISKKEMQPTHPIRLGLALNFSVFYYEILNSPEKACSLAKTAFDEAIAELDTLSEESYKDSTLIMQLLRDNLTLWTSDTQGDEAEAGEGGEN
# T6: 14-3-3ζ (human, full-length) (human, UniProt P63104 1-245)
# T6 construct: N-terminal glycine retained after TEV cleavage of the His tag; 14-3-3ζ, human, ORF bought from GeneCopoeia, in Gateway pDEST17; full-length; Dimer in the crystal; the ITC stoichiometry counts on the 14-3-3 monomer; also called WT 14-3-3ζ; source: E. coli BL21 (DE3) pLysS, purified (Ni Sepharose, TEV cleavage, second Ni Sepharose pass); not shown: His tag, N-terminal, cleaved
# T6 sequence: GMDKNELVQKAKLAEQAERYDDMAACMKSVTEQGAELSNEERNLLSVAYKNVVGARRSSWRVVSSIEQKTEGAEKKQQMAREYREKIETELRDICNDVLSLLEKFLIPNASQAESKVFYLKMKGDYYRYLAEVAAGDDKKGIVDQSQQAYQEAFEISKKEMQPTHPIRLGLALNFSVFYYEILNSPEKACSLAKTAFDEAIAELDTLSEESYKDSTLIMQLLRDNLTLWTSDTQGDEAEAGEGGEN
# B1: pCby 7-mer (peptide)
# peptide: Ac-RKSA[pS]LS-NH2
# SMILES: CC(=O)N[C@@H](CCCNC(=N)N)C(=O)N[C@@H](CCCCN)C(=O)N[C@@H](CO)C(=O)N[C@@H](C)C(=O)N[C@@H](COP(=O)(O)O)C(=O)N[C@@H](CC(C)C)C(=O)N[C@@H](CO)C(N)=O
# notes: Chibby (Cby), human, residues 16-22; also called 16RKSA(pS)LS22; source: synthetic peptide, bought: TUFTS University Core Facility
# B2: pCby S22P 7-mer (peptide)
# peptide: Ac-RKSA[pS]LP-NH2
# SMILES: CC(=O)N[C@@H](CCCNC(=N)N)C(=O)N[C@@H](CCCCN)C(=O)N[C@@H](CO)C(=O)N[C@@H](C)C(=O)N[C@@H](COP(=O)(O)O)C(=O)N[C@@H](CC(C)C)C(=O)N1CCC[C@H]1C(N)=O
# notes: Chibby (Cby), human, residues 16-22 with S22P; also called Cby 7-mer S22P; 16RKSA(pS)LP22; source: synthetic peptide, bought: TUFTS University Core Facility
# B3: pCby 18-mer (peptide)
# peptide: KTPPRKSA[pS]LSNLHSLDR
# notes: Chibby (Cby), human, residues 12-29; also called Cby 18-mer WT; source: synthetic peptide, bought: GenScript USA Inc
# B4: pCby S22P 18-mer (peptide)
# peptide: KTPPRKSA[pS]LPNLHSLDR
# notes: Chibby (Cby), human, residues 12-29 with S22P; also called Cby 18-mer S22P; source: synthetic peptide, bought: TUFTS University Core Facility
# B5: Cby 18-mer L24A (peptide)
# peptide: KTPPRKSA[pS]LSNAHSLDR
# notes: Chibby (Cby), human, residues 12-29 with L24A; also called Cby L24A 18-mer; source: synthetic peptide, bought (GenScript USA Inc. or TUFTS University Core Facility)
# B6: pCby 18-mer (peptide)
# peptide: KTPPRKSA[pS]LSNLHSLDR
# notes: Chibby (Cby), human, residues 12-29; free NH2 and COOH ends; also called Cby 18-mer WT; WT Cby 18-mer; source: synthetic peptide, bought: GenScript USA Inc
# B7: pCby S22P 18-mer (peptide)
# peptide: KTPPRKSA[pS]LPNLHSLDR
# notes: Chibby (Cby), human, residues 12-29 with S22P; free NH2 and COOH ends; also called Cby 18-mer S22P; source: synthetic peptide, bought: TUFTS University Core Facility
# Columns and labels:
# Settings in all cases: both partners purified
# [1] = molecular target: T1, 14-3-3ζ; experiment: ITC; duplicate set of titrations; 5 uL aliquots of ~1-2 mM peptide titrated into the 1.4 mL cell with ~100-200 uM 14-3-3ζ; 25 °C; 50 mM sodium phosphate, 100 mM NaCl, 1 mM DTT, pH 6.8; one-site model; n per 14-3-3 monomer
# [2] = molecular target: T2, 14-3-3ζΔC12; experiment: as above
# [3] = molecular target: T3, 14-3-3ζ K49A; experiment: as above
# [4] = molecular target: T4, 14-3-3ζΔC12; experiment: ITC; VP-ITC, 25°C; ~1-2 mM peptide titrated in 5 uL aliquots into ~100-200 uM 14-3-3ζ in the cell; 50 mM sodium phosphate, 100 mM NaCl, 1 mM DTT, pH 6.8; one-site model; in duplicate
# [5] = molecular target: T5, 14-3-3ζ K49A; experiment: as above
# [6] = molecular target: T6, 14-3-3ζ (human, full-length); experiment: as above
binder,measurement,setting,value
B1,Kd,[1],47.6 µM
same,stoichiometry N,[1],0.94
B2,Kd,[1],3.2 µM
same,stoichiometry N,[1],1.02
B3,Kd,[2],8.5 µM
same,stoichiometry N,[2],1.02
same,Kd,[3],5.5 µM
same,stoichiometry N,[3],1.07
same,Kd,[1],4.9 µM
same,stoichiometry N,[1],0.94
B4,Kd,[3],1.8 µM
same,stoichiometry N,[3],0.97
same,Kd,[1],0.38 µM
same,stoichiometry N,[1],1.08
B5,Kd,[1],25 µM
same,stoichiometry N,[1],1.05
B6,Kd,[4],6.8 µM
same,dH,[4],-3.35 ± 0.06 kcal/mol
same,stoichiometry N,[4],1.04
same,Kd,[5],3.8 µM
same,dH,[5],-4.16 ± 0.05 kcal/mol
same,stoichiometry N,[5],1.01
same,Kd,[6],4.6 µM
same,dH,[6],-4.35 ± 0.05 kcal/mol
same,stoichiometry N,[6],0.96
B7,Kd,[5],1.9 µM
same,dH,[5],-7.13 ± 0.03 kcal/mol
same,stoichiometry N,[5],1.07
same,Kd,[6],0.36 µM
same,dH,[6],-8.03 ± 0.02 kcal/mol
same,stoichiometry N,[6],1.05
